According to publication PMC3294036 (Nature structural & molecular biology, 2012):

Legend:
[1] = target: T1, calcineurin (CN A–CN B heterodimer), recombinant (UniProt Q08209;P63098)
[2] = target: T1, calcineurin (CN A–CN B heterodimer), …; test: SEC-MALS
[3] = target: rhodamine-CN (calcineurin labelled with tetramethylrhodamine acceptor) (UniProt Q08209;P63098, tetramethylrhodamine label on CN (chain and site not stated)); test: FRET or BRET

T1 sequence (P63098 16-170, one chain of several): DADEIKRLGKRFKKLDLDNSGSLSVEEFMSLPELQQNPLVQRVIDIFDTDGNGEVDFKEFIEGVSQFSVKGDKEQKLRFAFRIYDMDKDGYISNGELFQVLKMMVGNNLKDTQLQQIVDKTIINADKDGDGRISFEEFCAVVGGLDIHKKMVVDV

Binder | Ki [1] [µM] | other results
GST-tagged wildtype AKAP79(333–408) (PIAIIIT) (domain or fragment) KRMEPIAIIITDTEISEFDVTKSKNVPKQFLISAENEQVGVFANDNGFEDRTSEQYETLLIETASSLVKNAIQLSI | 0.36 | –
AKAP79(333–408) (domain or fragment) KRMEPIAIIITDTEISEFDVTKSKNVPKQFLISAENEQVGVFANDNGFEDRTSEQYETLLIETASSLVKNAIQLSI | – | stoichiometry N [2]: 1
ATTO425-AKAP79(333–408) I338P variant (PPAIIIT) (domain or fragment, ATTO 425 donor label (site not stated)) KRMEPPAIIITDTEISEFDVTKSKNVPKQFLISAENEQVGVFANDNGFEDRTSEQYETLLIETASSLVKNAIQLSI | – | koff [3]: 4.24 s⁻¹
GST-AKAP79(333–408) T343A (PIAIIIA) (domain or fragment) KRMEPIAIIIADTEISEFDVTKSKNVPKQFLISAENEQVGVFANDNGFEDRTSEQYETLLIETASSLVKNAIQLSI | 39 | –
GST-AKAP79(333–408) I338P T343A (PPAIIIA) (domain or fragment) KRMEPPAIIIADTEISEFDVTKSKNVPKQFLISAENEQVGVFANDNGFEDRTSEQYETLLIETASSLVKNAIQLSI | 12 | –
KRMEPAAIIITDTEIS (domain or fragment) [GST-AKAP79(333–348) I338A (PAAIIIT)] | 47 | –

The next lines start with results.

Ki [1] [µM] | Binder | other results
0.08 | GST-AKAP79(333–408) I338P (PPAIIIT) (domain or fragment) KRMEPPAIIITDTEISEFDVTKSKNVPKQFLISAENEQVGVFANDNGFEDRTSEQYETLLIETASSLVKNAIQLSI | –
3.7 | KRMEAIAIIITDTEIS (domain or fragment) [GST-AKAP79(333–348) P337A (AIAIIIT)] | –
